In publication PMC4678811, “Assembly and dynamics of the U4/U6 di-snRNP by single-molecule FRET” (Nucleic Acids Research, 2015):
Several values for one entry are separate records, joined by “and”; a condition that tells them apart may be missing. Equal entries are not always repeated.

Key:
[1] = system: LSm2-LSm8 complex (Saccharomyces cerevisiae); assay: EMSA; conditions: apparent; Hill 1.7; EMSA: 2 nM RNA, 10 mM K-HEPES pH 7.5, 100 mM KCl, 0.01% NP-40, 20 ug E. coli tRNA in 100 ul, on ice 60 min, 4% native gel 0.5X TBE 4 C; smFRET: 10 mM Tris-HCl …
[2] = system: Sm protein complex (SmB, D1, D2, D3, E, F, G) (Saccharomyces cerevisiae); assay: EMSA; conditions: apparent; Hill 3.5; EMSA: 2 nM RNA, 10 mM K-HEPES pH 7.5, 100 mM KCl, 0.01% NP-40, 20 ug E. coli tRNA in 100 ul, on ice 60 min, 4% native gel 0.5X TBE 4 C; smFRET: 10 mM Tris-HCl …
[3] = system: Snu13 (Saccharomyces cerevisiae); assay: EMSA; conditions: apparent; Hill 1; EMSA: 2 nM RNA, 10 mM K-HEPES pH 7.5, 100 mM KCl, 0.01% NP-40, 20 ug E. coli tRNA in 100 ul, on ice 60 min, 4% native gel 0.5X TBE 4 C; smFRET: 10 mM Tris-HCl …
[4] = system: Prp3/4 (Prp3-Prp4 complex) (Saccharomyces cerevisiae); assay: EMSA; conditions: apparent; Hill 2.6; EMSA: 2 nM RNA, 10 mM K-HEPES pH 7.5, 100 mM KCl, 0.01% NP-40, 20 ug E. coli tRNA in 100 ul, on ice 60 min, 4% native gel 0.5X TBE 4 C; smFRET: 10 mM Tris-HCl …
[5] = system: Prp31 (Saccharomyces cerevisiae); assay: EMSA; conditions: apparent; Hill 1.9; EMSA: 2 nM RNA, 10 mM K-HEPES pH 7.5, 100 mM KCl, 0.01% NP-40, 20 ug E. coli tRNA in 100 ul, on ice 60 min, 4% native gel 0.5X TBE 4 C; smFRET: 10 mM Tris-HCl …
[6] = molecular target: the molecule itself; assay: native MS; minor peaks of the Mono-Q column after the main peak of the purified LSm2–LSm8 complex

U4/U6 snRNA duplex (full length)
Kd [1]: 5 nM | Kd [2]: 89 nM | Kd [3]: 17 nM | Kd [4]: 57 nM | Kd [5]: 243 nM

B1: LSm2–LSm8 complex (complex, Saccharomyces cerevisiae)
chain 1: MLFFSFFKTLVDQEVVVELKNDIEIKGTLQSVDQFLNLKLDNISCTDEKKYPHLGSVRNIFIRGSTVRYVYLNKNMVDTNLLQDATRREVMTERK
chain 2: METPLDLLKLNLDERVYIKLRGARTLVGTLQAFDSHCNIVLSDAVETIYQLNNEELSESERRCEMVFIRGDTVTLISTPSEDDDGAVEI
chain 3: MLPLYLLTNAKGQQMQIELKNGEIIQGILTNVDNWMNLTLSNVTEYSEESAINSEDNAESSKAVKLNEIYIRGTFIKFIKLQDNIIDKVKQQINSNNNSNSNGPGH
chain 4: MSLPEILPLEVIDKTINQKVLIVLQSNREFEGTLVGFDDFVNVILEDAVEWLIDPEDESRNEKVMQHHGRMLLSGNNIAILVPGGKKTPTEAL
chain 5: MSGKASTEGSVTTEFLSDIIGKTVNVKLASGLLYSGRLESIDGFMNVALSSATEHYESNNNKLLNKFNSDVFLRGTQVMYISEQKI
chain 6: MHQQHSKSENKPQQQRKKFEGPKREAILDLAKYKDSKIRVKLMGGKLVIGVLKGYDQLMNLVLDDTVEYMSNPDDENNTELISKNARKLGLTVIRGTILVSLSSAEGSDVLYMQK
chain 7: MSATLKDYLNKRVVIIKVDGECLIASLNGFDKNTNLFITNVFNRISKEFICKAQLLRGSEIALVGLIDAENDDSLAPIDEKKVPMLKDTKNKIENEHVIWEKVYESKTK
notes: LSm2, Saccharomyces cerevisiae, untagged; LSm3, Saccharomyces cerevisiae, untagged; LSm4, Saccharomyces cerevisiae, amino acids 1-106, untagged; LSm5, Saccharomyces cerevisiae; LSm6, Saccharomyces cerevisiae, untagged; LSm7, Saccharomyces cerevisiae, untagged; LSm8, Saccharomyces cerevisiae; Both tags are TEV-cleavable; also called LSm 2–8 complex; LSm complex; source: S. cerevisiae BCY123, …
stoichiometry N [6]: 2 and 3
